Assay [1] has as its target T1, recombinant human IL-8, (ser-IL-8)72 (human, UniProt P10145 28-99, 125I label on tyrosine in the tracer form; the letters do not carry it).
T1 construct: also called human wild type IL-8; HuIL-8
T1 sequence: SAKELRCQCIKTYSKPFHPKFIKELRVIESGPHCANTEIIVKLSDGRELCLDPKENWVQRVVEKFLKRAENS
Kind of assay: competitive RIP with unlabeled IL-8, Scatchard analysis.

The target of a further assay is T2, MGSA (UniProt P09341 35-107).
T2 sequence (looked up): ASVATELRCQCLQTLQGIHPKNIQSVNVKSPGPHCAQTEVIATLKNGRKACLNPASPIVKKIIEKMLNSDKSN
Kind of assay: ELISA, cytokines coated onto plates. On the technique in general: ELISA stands for enzyme-linked immunosorbent assay.

The target of another assay is TNF (UniProt P01375 77-233, limits assumed). The assay can be described thus: ELISA, cytokines coated onto plates.
Chain of TNF (P01375 77-233 limits assumed): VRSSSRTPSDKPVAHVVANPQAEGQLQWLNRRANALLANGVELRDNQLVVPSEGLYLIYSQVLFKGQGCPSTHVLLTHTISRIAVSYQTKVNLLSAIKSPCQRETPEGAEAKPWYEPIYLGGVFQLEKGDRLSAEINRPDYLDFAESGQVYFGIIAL
A further assay has as its target T3, β-TG (UniProt P02775 48-128).
T3 construct: also called b-TG
T3 sequence (looked up): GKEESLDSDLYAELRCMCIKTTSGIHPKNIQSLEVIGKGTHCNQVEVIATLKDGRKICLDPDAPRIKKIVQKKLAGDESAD
Kind of assay: ELISA, cytokines coated onto plates.

The target of another assay is T4, PF4 (UniProt P02776 32-101).
T4 construct: also called platelet factor 4
T4 sequence (looked up): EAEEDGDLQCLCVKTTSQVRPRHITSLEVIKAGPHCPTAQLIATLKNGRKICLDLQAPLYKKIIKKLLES
The assay can be described thus: ELISA, cytokines coated onto plates.

For another assay, the target named is T5, C5a (UniProt P01031 678-751).
T5 sequence (looked up): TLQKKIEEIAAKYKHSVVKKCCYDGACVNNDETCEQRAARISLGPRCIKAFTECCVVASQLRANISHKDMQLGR
Kind of assay: ELISA, cytokines coated onto plates.

The target of assay [2] is T1, recombinant human IL-8, (ser-IL-8)72. The assay can be described thus: KinExA equilibrium constant; column head Kd. How it is done: (§1) The beads were resuspended in assay buffer (0.1% bovine serum albumin in PBS) to a final volume of 30 ml.
(§2) The equilibrium constant (Kd) was calculated using the software provided by Sapidyne Instruments Inc.
On the technique in general: A kinetic exclusion assay measures how much of one partner remains free in solution.

Assay [3] shares this target. Kind of assay: competition: inhibition of 125I-IL-8 binding to human neutrophils.
Assay [4] has the same target. The assay can be described thus: competition binding: the antibody is varied (Cold Ligand, nM) and blocks 125I-IL-8 binding to IL-8 receptors on human neutrophils. How it is done: (§3) The periplasmic fraction was collected and passed over a Hi-Trap Protein-G column (Pharmacia, Piscataway, N.J.) followed by a desalting and concentration step. The protein was analyzed by SDS-PAGE, mass spectrometry and amino acid analysis.

The next assay deals with T6, rhesus IL-8 (rhesus, UniProt P67813 23-101, limits assumed).
T6 sequence (looked up): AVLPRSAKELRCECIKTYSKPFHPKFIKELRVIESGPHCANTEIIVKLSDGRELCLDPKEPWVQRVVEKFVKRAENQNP
Kind of assay: cell-based or functional assay.

A further assay addresses human monomeric IL-8 (human). Kind of assay: cell-based or functional assay.
The target in assay [5] is T1, recombinant human IL-8, (ser-IL-8)72. The assay can be described thus: competition binding: the Fab is varied (Cold Ligand, nM) and blocks 125I-IL-8 binding to IL-8 receptors on human neutrophils. How it is done: as §3
The target is the same in assay [6]. Kind of assay: competition phage ELISA on plate-bound K64C IL-8. How it is done:
The first step of the assay requires that the concentrations of the phage carrying the wild type and mutated antibodies be normalized, allowing a comparison of the relative affinities of each antibody. […] The plates were washed once more and stored covered at 4° C. with 200 ul of PBS/well. […] The phage were resuspended in 500 ul […] Tris-HCl pH 7.5, 1 mM EDTA and […] NaCl and held at 4° C. for no longer than 3 hours. […] The phage were next serially diluted in 3 fold steps down the plate from well A through H. The plates were incubated for I hour at 25° C. followed by nine quick washes with PBS containing 0.05% Tween-20 (PBST).

Assay [7] has the same target. The assay can be described thus: cell-based or functional assay.
The target of a further assay is T7, rabbit IL-8 (rabbit, UniProt P19874 23-101, limits assumed).
T7 sequence (looked up): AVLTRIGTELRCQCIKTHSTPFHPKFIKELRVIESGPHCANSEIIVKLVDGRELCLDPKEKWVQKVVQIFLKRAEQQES
Kind of assay: cell-based or functional assay.

Assay [8] addresses T1, recombinant human IL-8, (ser-IL-8)72. Kind of assay: KinExA, IL-8-coated beads, solution equilibrium. How it is done:
as §1, §2

For assay [9] the target is unchanged. Kind of assay: competition: inhibition of IL-8 binding to human neutrophils (experiment of FIG. 54B); Fab control of FIG. 54B.
Assay [10] has the same target. Kind of assay: competition binding: the Fab is varied (Cold Ligand, nM) and blocks 125I-IL-8 binding to IL-8 receptors on human neutrophils. The text has this:
The displacement curves from a representative binding experiment performed in duplicate is depicted in FIG. 38.
The source holds these as a separate data set.

The target is the same in assay [11]. Kind of assay: competition binding: the Fab inhibits binding of 125I-IL-8 to human neutrophils; Bound/Total against antibody competitor (nM).
Assay [12] has the same target. The assay is described as above. The source holds these as a separate data set.
Assay [13] shares this target. Kind of assay: competition: inhibition of iodinated IL-8 binding to human neutrophils.
The target is the same in assay [14]. The assay can be described thus: KinExA, IL-8-coated beads. How it is done:
as §1, §2

The target is the same in assay [15]. The assay can be described thus: competition binding: the antibody inhibits binding of 125I-IL-8 to human neutrophils; Bound/Total against cold ligand (nM). How it is done:
Neutrophils were prepared by using Mono-Poly Resolving Medium (M-PRM) (Flow Lab. Inc., McLean. Va.). Briefly fresh, heparinized human blood was loaded onto M-PRM at a ratio of blood to medium, 3.5:3.0, and centrifuged at 300×g for 30 min at room tem perature. Neutrophils enriched at the middle layer were collected and washed once in PBS. […] The receptor binding assay was done as follows. […] The supernatant was removed by aspiration and the radioactivity associated with the pellet was counted in a gamma counter.

Values joined by “and” are separate entries in the source; they are usually repeats but may differ in a detail not shown here. Equal values may be shown once.

As a reminder, the Kd is the free concentration of one partner at which half of the binding sites on the other are occupied at equilibrium, for simple one-to-one binding. What is called IC50 is the point on the concentration scale where inhibition reaches its midpoint.

B1: anti-IL-8 monoclonal antibody 5.12.14 (antibody, mouse IgG2a, V domains shown)
VH: EVQLVESGGGLVPPGGSLKLSCAASGFIFSSYGMSWVRQTPGKSLELVATINNNGDSTYYPDSVKGRFTISRDNAKNTLYLQMSSLKSEDTAMFYCARALISSATWFGYWGQGTLVTVSA
VL: DIVMTQSQKFMSTSVGDRVSVTCKASQNVGTNVAWYQQKPGQSPKALIYSSSYRYSGVPDRFTGSGSGTDFTLTISHVQSEDLADYFCQQYNIYPLTFGPGTKLELK
notes: murine IgG2a from hybridoma ATCC HB 11553
B1: in assay [1], the Kd is 0.3 nM.

B2: murine anti-rabbit IL-8 monoclonal antibody 6G4.2.5 (antibody, mouse IgG2a, V domains shown)
VH: EIQLQQSGPELMKPGASVKISCKASGYSFSSHYMHWVKQSHGKSLEWIGYIDPSNGETTYNQKFKGKATLTVDTSSSTANVHLSSLTSDDSAVYFCARGDYRYNGDWFFDVWGAGTTVTVSS
VL: DIVMTQTPLSLPVSLGDQASISCRSSQSLVHGIGNTYLHWYLQKPGQSPKLLIYKVSNRFSGVPDRFSGSGSGTDFTLRISRVEAEDLGLYFCSQSTHVPLTFGAGTKLELK
notes: full length murine IgG2a from hybridoma ATCC HB 11722; also called 6G4 murine mAb; intact murine 6G4.2.5 antibody
As for B2, the binding result in the assay with MGSA, in the assay with TNF, with β-TG, with PF4 and in the assay with C5a was “no binding” each time. Also, the Kd in assay [2] is 0.35 nM. Also, the half-inhibitory concentration (IC50) in [3] is 5 nM. In assay [4], the “IC50 (read off the curve)” value was ~7 nM.

B3: humanized 6G425 F(ab)-9 (humanized 6G4V11 Fab) (Fab, V domains shown)
VH: EVQLVQSGGGLVQPGGSLRLSCAASGYSFSSHYMHWVRQAPGKGLEWVGYIDPSNGETTYNQKFKGRFTLSRDNSKNTAYLQMNSLRAEDTAVYYCARGDYRYNGDWFFDVWGQGTLVTVSS
VL: DIQMTQSPSSLSASVGDRVTITCRSSQSLVHGIGNTYLHWYQQKPGKAPKLLIYKVSNRFSGVPSRFSGSGSGTDFTLTISSLQPEDFATYYCSQSTHVPLTFGQGTKVEIKR
notes: F(ab)-6 with murine Gln for Glu at H6; also called version 11; 6G4.2.5V11
Take B3: the figures for the “IC50, inhibition of IL-8 mediated neutrophil chemotaxis” value in the assay with rhesus IL-8 and with human monomeric IL-8 were ~22 nM and ~15 nM, respectively. In assay [5], the “IC50 (read off the curve)” value was ~6 nM.

B4: h6G4V11 Y37A (CDR-L1), phage-displayed (Fab, V domains shown)
VH: EVQLVQSGGGLVQPGGSLRLSCAASGYSFSSHYMHWVRQAPGKGLEWVGYIDPSNGETTYNQKFKGRFTLSRDNSKNTAYLQMNSLRAEDTAVYYCARGDYRYNGDWFFDVWGQGTLVTVSS
VL: DIQMTQSPSSLSASVGDRVTITCRSSQSLVHGIGNTALHWYQQKPGKAPKLLIYKVSNRFSGVPSRFSGSGSGTDFTLTISSLQPEDFATYYCSQSTHVPLTFGQGTKVEIKR
notes: alanine-scan mutant of m36
Take B4: in [6], the binding result is “no binding”.

B5: 6G4V11N35A Fab (Fab, V domains shown)
VH: EVQLVQSGGGLVQPGGSLRLSCAASGYSFSSHYMHWVRQAPGKGLEWVGYIDPSNGETTYNQKFKGRFTLSRDNSKNTAYLQMNSLRAEDTAVYYCARGDYRYNGDWFFDVWGQGTLVTVSS
VL: DIQMTQSPSSLSASVGDRVTITCRSSQSLVHGIGATYLHWYQQKPGKAPKLLIYKVSNRFSGVPSRFSGSGSGTDFTLTISSLQPEDFATYYCSQSTHVPLTFGQGTKVEIKR
notes: also called 6G4.2.5V11N35A Fab; Fab control
For the molecule B5, in assay [7], the “IC50, blocking IL-8 mediated chemotaxis” value is 0.8 nM. The “average IC50, inhibition of human IL-8 mediated neutrophil chemotaxis” value in [7] was found to be 2.7 nM. Besides, the results for the “average IC50, inhibition of IL-8 mediated neutrophil chemotaxis” value in the assay with rabbit IL-8 and with human monomeric IL-8 were 5 nM and 1 nM, respectively. Also, the Kd in [8] is ~0.114 nM. In addition, the half-inhibitory concentration (IC50) in [9] is 0.802 nM; in [11], 0.264 nM and 0.468 nM; in assay [12] it was 0.294 nM. The “IC50 (read off the curve)” value in assay [10] was in the range of 1 to 2 nM.

B6: humanized 6G425 F(ab)-6 (Fab, V domains shown)
VH: EVQLVESGGGLVQPGGSLRLSCAASGYSFSSHYMHWVRQAPGKGLEWVGYIDPSNGETTYNQKFKGRFTLSRDNSKNTAYLQMNSLRAEDTAVYYCARGDYRYNGDWFFDVWGQGTLVTVSS
VL: DIQMTQSPSSLSASVGDRVTITCRSSQSLVHGIGNTYLHWYQQKPGKAPKLLIYKVSNRFSGVPSRFSGSGSGTDFTLTISSLQPEDFATYYCSQSTHVPLTFGQGTKVEIKR
notes: also called version 8
On to B6, for which the half-maximal inhibitory concentration (IC50) in assay [13] was 34.6 nM.

B7: full length 6G4V11N35E IgG1 (antibody, V domains shown, not shown: a dimerising Fc or GST)
VH: EVQLVQSGGGLVQPGGSLRLSCAASGYSFSSHYMHWVRQAPGKGLEWVGYIDPSNGETTYNQKFKGRFTLSRDNSKNTAYLQMNSLRAEDTAVYYCARGDYRYNGDWFFDVWGQGTLVTVSS
VL: DIQMTQSPSSLSASVGDRVTITCRSSQSLVHGIGETYLHWYQQKPGKAPKLLIYKVSNRFSGVPSRFSGSGSGTDFTLTISSLQPEDFATYYCSQSTHVPLTFGQGTKVEIKR
notes: made in CHO cells
As for B7, the “IC50, inhibition of IL-8 mediated human neutrophil chemotaxis” value in [7] was 6 nM. Also, in [14], the Kd was ~0.049 nM. Also, the results for the half-maximal inhibitory concentration (IC50) in assay [3] and in [15] were ~0.5 nM and 0.468 nM, respectively.

The values are drawn from US20070048219A1 (Genentech, published 2007).
